Experimental data reported in patent US20190106460A1 (published 2019).
Starred links: 1 amine or outer side, 2 acyl side, 3 side chain; linkers in the order of their positions; H or OH if unused. Non-standard residues stand in square brackets, D forms with d. No end group written: not given here. *: point of attachment. Benzenesulfonyl(4-OMe) = COc1ccc(S(=O)(=O)*)cc1; E(Me) = COC(=O)CC[C@H](N[*:1])C(=O)[*:2]; Phe(3-Cl) = N[C@@H](Cc1cccc(Cl)c1)C(=O)O; Phe(3-F) = N[C@@H](Cc1cccc(F)c1)C(=O)O; Suc = O=C(CCC(=O)[*:2])[*:1]; Tos = Cc1ccc(S(=O)(=O)*)cc1

B1: Suc-EGFFE-NH2 (peptide)
peptide: Suc-EGFFE-NH2
SMILES: NC(=O)[C@H](CCC(=O)O)NC(=O)[C@H](Cc1ccccc1)NC(=O)[C@H](Cc1ccccc1)NC(=O)CNC(=O)[C@H](CCC(=O)O)NC(=O)CCC(=O)O
notes: also called UBP002; succ-EGFFE
B2: 4-(MeO)-PhSO2-dEGF(3F)WE-NH2 (peptide)
peptide: {Benzenesulfonyl(4-OMe)}-[dD]EG[Phe(3-F)]WE-NH2
SMILES: COc1ccc(S(=O)(=O)N[C@H](CC(=O)O)C(=O)N[C@@H](CCC(=O)O)C(=O)NCC(=O)N[C@@H](Cc2cccc(F)c2)C(=O)N[C@@H](Cc2c[nH]c3ccccc23)C(=O)N[C@@H](CCC(=O)O)C(N)=O)cc1
notes: also called UBP022
B3: Ts-dEGF(3Cl)WE-NH2 (peptide)
peptide: Tos-[dD]EG[Phe(3-Cl)]WE-NH2
SMILES: Cc1ccc(S(=O)(=O)N[C@H](CC(=O)O)C(=O)N[C@@H](CCC(=O)O)C(=O)NCC(=O)N[C@@H](Cc2cccc(Cl)c2)C(=O)N[C@@H](Cc2c[nH]c3ccccc23)C(=O)N[C@@H](CCC(=O)O)C(N)=O)cc1
notes: also called UBP034
B4: Ts-DEGF(3F)WE-NH2 (peptide)
peptide: Tos-DEG[Phe(3-F)]WE-NH2
SMILES: Cc1ccc(S(=O)(=O)N[C@@H](CC(=O)O)C(=O)N[C@@H](CCC(=O)O)C(=O)NCC(=O)N[C@@H](Cc2cccc(F)c2)C(=O)N[C@@H](Cc2c[nH]c3ccccc23)C(=O)N[C@@H](CCC(=O)O)C(N)=O)cc1
notes: also called UBP024

Assays:
[1] = molecular target: T1, βTrCP (tag cleaved and complexed with Skp1) (UniProt Q9Y297 175-605; P63208 1-163); experiment: FP competition, 10 nM fluorescein-IκB peptide on βTrCP/Skp1
T1 construct: Protein of the fluorescence polarisation assay, 0.035 µM; also called Beta Transducin repeat-containing protein; βTrCP/Skp1
Procedure: (§1) Binding of the compounds to βTrCP was assessed using a fluorescence polarisation (FP) binding assay. The FP assay is an in vitro binding assay using a fluorescein-tagged IkB peptide at 10 nM to mimic substrate binding to βTrCP, and was performed as described above.

[2] = molecular target: T1, βTrCP (tag cleaved and complexed with …); experiment: as above; remark: listed apart in the source
Procedure: as §1
Four sequences were selected for re-synthesis and testing in the FP assay, which was performed as described above along with 4 negative controls.

Skp2 = Skp2 (UniProt Q13309 1-424, limits assumed); experiment: cell-based or functional assay
Chain of Skp2 (Q13309 whole entry): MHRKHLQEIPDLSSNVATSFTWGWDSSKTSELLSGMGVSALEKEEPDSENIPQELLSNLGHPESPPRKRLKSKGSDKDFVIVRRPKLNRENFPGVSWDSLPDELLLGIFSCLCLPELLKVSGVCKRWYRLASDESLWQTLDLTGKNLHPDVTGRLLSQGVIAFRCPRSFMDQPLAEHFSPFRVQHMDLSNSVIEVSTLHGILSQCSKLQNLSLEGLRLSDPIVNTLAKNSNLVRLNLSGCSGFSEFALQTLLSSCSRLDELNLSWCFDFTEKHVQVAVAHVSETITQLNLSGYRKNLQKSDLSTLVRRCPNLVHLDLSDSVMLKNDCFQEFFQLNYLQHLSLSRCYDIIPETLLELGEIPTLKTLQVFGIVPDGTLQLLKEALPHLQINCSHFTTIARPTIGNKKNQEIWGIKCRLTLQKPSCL

Fbw7 = Fbw7 (UniProt Q969H0 263-707, limits assumed); experiment: cell-based or functional assay
Chain of Fbw7 (Q969H0 263-707 limits assumed): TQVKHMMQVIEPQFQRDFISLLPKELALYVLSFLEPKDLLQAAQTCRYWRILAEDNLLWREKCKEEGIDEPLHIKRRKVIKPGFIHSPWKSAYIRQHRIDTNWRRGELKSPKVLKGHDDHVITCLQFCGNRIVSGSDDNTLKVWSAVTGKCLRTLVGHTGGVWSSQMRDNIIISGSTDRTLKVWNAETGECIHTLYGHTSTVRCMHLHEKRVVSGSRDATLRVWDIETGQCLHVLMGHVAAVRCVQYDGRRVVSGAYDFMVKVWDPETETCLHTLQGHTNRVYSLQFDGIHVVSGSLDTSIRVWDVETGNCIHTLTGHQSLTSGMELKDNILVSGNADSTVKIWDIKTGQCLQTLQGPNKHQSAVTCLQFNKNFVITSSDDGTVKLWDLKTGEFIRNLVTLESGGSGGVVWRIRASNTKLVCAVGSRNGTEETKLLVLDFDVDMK

[3] = molecular target: T2, βTrCP (tag cleaved and complexed with Skp1) (UniProt Q9Y297 175-605; P63208 1-163); experiment: FP competition vs fluorescein-IκB peptide
T2 construct: Protein of the FP assay (0.035 µM); also called Beta Transducin repeat-containing protein; βTrCP/Skp1

[4] = molecular target: T2, βTrCP (tag cleaved and complexed with …); experiment: FP competition vs fluorescein-IκB peptide; remark: listed apart in the source
[5] = molecular target: T3, HisβTrCP/Skp1 and HisβTrCP/GSTSkp1 (immobilised on NTA Biacore chip) (UniProt Q9Y297 175-605; P63208 1-163); experiment: SPR, Biacore T200, βTrCP/Skp1 immobilised
T3 construct: SPR: KD values from both surfaces (with or without the GST moiety) were averaged to give the apparent KD; also called βTrCP surfaces
T3 sequence (Q9Y297 175-605, chain 1 of 2): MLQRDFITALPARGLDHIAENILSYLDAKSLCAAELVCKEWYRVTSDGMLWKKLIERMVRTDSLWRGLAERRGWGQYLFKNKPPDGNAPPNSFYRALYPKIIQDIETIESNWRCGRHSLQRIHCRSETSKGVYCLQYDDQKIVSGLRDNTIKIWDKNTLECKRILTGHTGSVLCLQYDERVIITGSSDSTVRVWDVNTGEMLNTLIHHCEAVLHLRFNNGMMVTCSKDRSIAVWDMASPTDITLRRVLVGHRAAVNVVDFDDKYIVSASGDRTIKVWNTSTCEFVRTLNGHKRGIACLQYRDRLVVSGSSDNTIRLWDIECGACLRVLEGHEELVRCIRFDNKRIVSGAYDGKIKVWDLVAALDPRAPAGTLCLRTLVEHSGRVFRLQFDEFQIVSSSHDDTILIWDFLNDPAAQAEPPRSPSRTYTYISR
T3 sequence (P63208 whole entry, chain 2 of 2): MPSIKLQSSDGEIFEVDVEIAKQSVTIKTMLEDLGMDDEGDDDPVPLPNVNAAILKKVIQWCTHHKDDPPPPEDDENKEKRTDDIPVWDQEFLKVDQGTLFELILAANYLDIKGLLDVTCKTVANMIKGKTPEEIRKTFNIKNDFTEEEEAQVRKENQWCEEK
Excerpt: (§2) As βTrCP was His tagged, an NTA sensor chip was used. This sensor chip has a dextran surface matrix with immobilized nitrilotriacetic acid (NTA) which provides a means of capturing polyHis-tagged proteins through Nickel chelation. It was hoped that addition of Ni⁺ would orient the protein in a specific (and hopefully active) manner as it is covalently immobilised via amine coupling. Addition of EDC:NHS (N-ethyl-N′-(3-[…])-carbodiimide:N-hydroxysuccinimide) converts carboxyl groups on the dextran sensor chip surface to succinamide esters which readily form covalent bonds with primary amines. Each chip contains four flow cells (each a separate surface) which means that compounds/peptides can be passed over different forms of βTrCP and a reference surface simultaneously. If binding to βTrCP is occurring, responses should be the same (accounting for differences in density of surface etc) on each surface.
Small molecule/peptide samples to be assayed for binding to βTrCP surfaces, were provided as 10 mM stocks in 100% DMSO. All samples were tested in running buffer composed of 10 mM HEPES pH 7.4, 150 mM NaCl, 50 μM EDTA, 0.005% p20, and 1% DMSO. Serial dilutions were made using running buffer. Samples were tested over varying concentrations up to a maximum of 100 μM. Two methods of measuring the SPR response were employed: single cycle kinetics which measures the response across different concentrations of sample within a single cycle (no regeneration of surface) and a method that measures the response at a given concentration in each cycle and includes a regeneration wash after each sample injection. The regeneration solution used was the same as running buffer, but included 500 mM NaCl. Data was fitted using Biacore T200 evaluation software. KD values calculated from binding curves from both surfaces (with or without the GST moiety) were averaged to produce apparent KD's for each sample tested.

[6] = molecular target: T3, HisβTrCP/Skp1 and HisβTrCP/GSTSkp1 …; experiment: SPR (Biacore T200), single cycle run up to 1e-6 M, steady-state fit of the run shown; Rmax 2.156 RU, Chi² 0.00730 RU² [E]
Excerpt: as §2
(§3) Small molecule/peptide samples to be assayed for binding to βTrCP surfaces, were provided as 10 mM stocks in 100% DMSO. All samples were tested in running buffer composed of 10 mM HEPES pH 7.4, 150 mM NaCl, 50 μM EDTA, 0.005% p20, and 1% DMSO. Serial dilutions were made using running buffer. […] KD values calculated from binding curves from both surfaces (with or without the GST moiety) were averaged to produce apparent KD's for each sample tested.

[7] = molecular target: T3, HisβTrCP/Skp1 and HisβTrCP/GSTSkp1 …; experiment: SPR (Biacore T200), single cycle run up to 1e-6 M, steady-state fit of the run shown; Rmax 3.459 RU, Chi² 0.00452 RU² [C]
Excerpt: as §2, §3

[8] = molecular target: T3, HisβTrCP/Skp1 and HisβTrCP/GSTSkp1 …; experiment: SPR (Biacore T200), single cycle run up to 1e-6 M, steady-state fit of the run shown; Rmax 4.264 RU, Chi² 0.00601 RU² [B]
Excerpt: as §2, §3

[9] = molecular target: T3, HisβTrCP/Skp1 and HisβTrCP/GSTSkp1 …; experiment: SPR (Biacore T200), single cycle run up to 1e-6 M, steady-state fit of the run shown; Rmax 1.318 RU, Chi² 0.00773 RU² [D]
Excerpt: as §2, §3

[10] = molecular target: T3, HisβTrCP/Skp1 and HisβTrCP/GSTSkp1 …; experiment: SPR (Biacore T200), single cycle run up to 1e-6 M, steady-state fit of the run shown; Rmax 2.093 RU, Chi² 0.0110 RU² [A]
Excerpt: as §2, §3

| Binder | IC50 [1] [nM] | IC50 [2] [nM] | % Inhibition Skp2 @ 10 µM (Skp2) [%] | % Inhibition Skp2 @ (100 µM) (Skp2) [%] | % Inhibition Fbw7 @ 10 µM (Fbw7) [%] | % Inhibition Fbw7 @ (100 µM) (Fbw7) [%] | IC50 [3] [nM] | IC50 [4] [nM] | Kd [5] [nM] | Kd [6] [nM] | Kd [7] [nM] | Kd [8] [nM] | Kd [9] [nM] | Kd [10] [nM] |
| --- | --- | --- | --- | --- | --- | --- | --- | --- | --- | --- | --- | --- | --- | --- |
| DEGFFE-NH2 [DEGFFE-NH2] | 43600 | – | – | – | – | – | – | – | – | – | – | – | – | – |
| Phth-EGFFE-NH2 [Phth-EGFFE-NH2] | – | 10900 | – | – | – | – | – | – | – | – | – | – | – | – |
| B1 | – | 3180 | – | – | – | – | – | – | – | – | – | – | – | – |
| Tos-[dD]EG[Phe(3-F)]W[E(Me)]-NH2 (also called UBP032) [Ts-dEGF(3F)WE(Me)-NH2] | – | – | 0 | 0 | 4 | 10 | 22 | 22 | 170 | 108 | – | – | – | – |
| B2 | – | – | 7 | 12 | 0 | 18 | 17 | 17 | 48 | – | 49.8 | – | – | – |
| B3 | – | – | 0 | 0 | 8 | 6 | 10 | 10 | 154 | – | – | 80.8 | – | – |
| B4 | – | – | 0 | 7 | 0 | 8 | 18 | 18 | 19 | – | – | – | 40 | – |
| Tos-[dD]EG[Phe(3-Cl)]W[E(Me)]-NH2 (also called UBP033) [Ts-dEGF(3Cl)WE(Me)-NH2] | – | – | 0 | 10 | 7 | 11 | 17 | 17 | 47 | – | – | – | – | 21.6 |
